Data set [1] deals with T1, Human TFIIEα, wild type, N-terminal FLAG tag (human, UniProt P29083 1-439).
T1 sequence (looked up): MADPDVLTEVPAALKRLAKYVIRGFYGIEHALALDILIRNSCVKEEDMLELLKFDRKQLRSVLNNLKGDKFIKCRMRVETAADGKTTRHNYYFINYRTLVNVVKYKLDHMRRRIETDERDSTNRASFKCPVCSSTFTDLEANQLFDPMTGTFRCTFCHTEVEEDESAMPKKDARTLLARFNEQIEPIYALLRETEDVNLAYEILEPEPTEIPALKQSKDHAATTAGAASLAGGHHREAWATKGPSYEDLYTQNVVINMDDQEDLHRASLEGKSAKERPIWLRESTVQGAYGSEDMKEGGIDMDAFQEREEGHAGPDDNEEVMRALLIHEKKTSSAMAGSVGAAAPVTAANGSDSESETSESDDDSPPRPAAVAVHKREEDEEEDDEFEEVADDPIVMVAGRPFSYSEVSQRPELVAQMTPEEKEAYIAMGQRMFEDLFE
In words: pull-down.

Data set [2] deals with T2, Glutathione S-transferase (GST)-tagged human XPB (human, UniProt P19447 1-782). Briefly: cell-based or functional assay.
T2 sequence (P19447 whole entry): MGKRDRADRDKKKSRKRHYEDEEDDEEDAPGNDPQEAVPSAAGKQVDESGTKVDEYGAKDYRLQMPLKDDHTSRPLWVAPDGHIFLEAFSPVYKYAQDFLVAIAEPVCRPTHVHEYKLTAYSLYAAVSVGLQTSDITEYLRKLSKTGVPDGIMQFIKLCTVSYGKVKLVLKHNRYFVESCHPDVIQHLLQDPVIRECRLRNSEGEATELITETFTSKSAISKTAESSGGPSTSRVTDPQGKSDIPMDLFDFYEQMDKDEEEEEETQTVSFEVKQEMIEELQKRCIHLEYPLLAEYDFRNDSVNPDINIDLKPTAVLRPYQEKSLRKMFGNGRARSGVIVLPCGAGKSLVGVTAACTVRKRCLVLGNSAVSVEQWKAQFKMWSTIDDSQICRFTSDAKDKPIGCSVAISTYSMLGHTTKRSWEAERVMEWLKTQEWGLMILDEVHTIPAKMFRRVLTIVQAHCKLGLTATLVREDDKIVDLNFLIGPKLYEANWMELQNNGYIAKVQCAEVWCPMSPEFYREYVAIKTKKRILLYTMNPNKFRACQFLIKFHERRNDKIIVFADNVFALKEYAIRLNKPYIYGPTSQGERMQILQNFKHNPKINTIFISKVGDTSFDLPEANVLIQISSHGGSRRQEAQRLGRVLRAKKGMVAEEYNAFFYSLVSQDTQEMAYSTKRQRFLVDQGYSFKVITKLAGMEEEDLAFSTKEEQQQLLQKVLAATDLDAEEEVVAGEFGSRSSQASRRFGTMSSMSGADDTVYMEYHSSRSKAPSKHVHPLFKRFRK
The data set “co-IP” concerns the molecule itself. In words: co-IP.
The target of data set [3] is T1, Human TFIIEα, wild type, N-terminal …. Briefly: co-IP.
Data set [4] has as its target T3, FLAG-tagged wild type TFIIEβ (human, UniProt P29084 1-291).
T3 sequence (looked up): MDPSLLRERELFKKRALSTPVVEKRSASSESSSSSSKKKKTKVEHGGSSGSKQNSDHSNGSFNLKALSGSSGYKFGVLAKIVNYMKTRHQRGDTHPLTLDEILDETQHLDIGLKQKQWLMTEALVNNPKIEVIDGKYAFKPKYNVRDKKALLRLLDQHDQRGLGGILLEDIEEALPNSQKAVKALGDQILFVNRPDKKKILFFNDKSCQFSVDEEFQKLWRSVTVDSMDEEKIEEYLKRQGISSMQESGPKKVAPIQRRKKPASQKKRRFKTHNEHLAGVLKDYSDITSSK
In words: co-IP.

The target of data set [5] is T2, Glutathione S-transferase (GST)-tagged …. In words: pull-down.

B1: Human TFIIEβ, wild type, His6 tagged (natural protein, UniProt P29084 1-291, looked up)
chain: MDPSLLRERELFKKRALSTPVVEKRSASSESSSSSSKKKKTKVEHGGSSGSKQNSDHSNGSFNLKALSGSSGYKFGVLAKIVNYMKTRHQRGDTHPLTLDEILDETQHLDIGLKQKQWLMTEALVNNPKIEVIDGKYAFKPKYNVRDKKALLRLLDQHDQRGLGGILLEDIEEALPNSQKAVKALGDQILFVNRPDKKKILFFNDKSCQFSVDEEFQKLWRSVTVDSMDEEKIEEYLKRQGISSMQESGPKKVAPIQRRKKPASQKKRRFKTHNEHLAGVLKDYSDITSSK
With B1, the binding result (in data set [1]; in the data set “co-IP”) was “binds” in each case. The “stimulation of XPB helicase activity, 2 μg of XPB and 1.2 μg of wild-type TFIIEβ” value in data set [2] was determined as 3 fold.

B2: Human TFIIEβ I171S, His6 tagged (natural protein, UniProt P29084 1-291, looked up)
chain: MDPSLLRERELFKKRALSTPVVEKRSASSESSSSSSKKKKTKVEHGGSSGSKQNSDHSNGSFNLKALSGSSGYKFGVLAKIVNYMKTRHQRGDTHPLTLDEILDETQHLDIGLKQKQWLMTEALVNNPKIEVIDGKYAFKPKYNVRDKKALLRLLDQHDQRGLGGILLEDSEEALPNSQKAVKALGDQILFVNRPDKKKILFFNDKSCQFSVDEEFQKLWRSVTVDSMDEEKIEEYLKRQGISSMQESGPKKVAPIQRRKKPASQKKRRFKTHNEHLAGVLKDYSDITSSK
With B2, the binding result in data set [3], in data set [4] and in data set [5] was “binds” throughout.

B3: Human TFIIEβ I189S, His6 tagged (natural protein, UniProt P29084 1-291, looked up)
chain: MDPSLLRERELFKKRALSTPVVEKRSASSESSSSSSKKKKTKVEHGGSSGSKQNSDHSNGSFNLKALSGSSGYKFGVLAKIVNYMKTRHQRGDTHPLTLDEILDETQHLDIGLKQKQWLMTEALVNNPKIEVIDGKYAFKPKYNVRDKKALLRLLDQHDQRGLGGILLEDIEEALPNSQKAVKALGDQSLFVNRPDKKKILFFNDKSCQFSVDEEFQKLWRSVTVDSMDEEKIEEYLKRQGISSMQESGPKKVAPIQRRKKPASQKKRRFKTHNEHLAGVLKDYSDITSSK
For B3, the binding result in data set [3], in data set [4] and in data set [5] was “binds” in each case.

The record behind these values is publication PMC1140373 (Nucleic Acids Research, 2005).
